Laboratory results from paper PMC4721544.

Biological target: EGFP-EVH2(Mena) (mouse)
Assay: cross-linking; lysates of MV^D7 cells stably expressing EGFP-EVH2 (Mena); 100 mM EDC and 10 mM NHS-ester, 1 h, room temperature; 50 mM MES pH 6.0, 500 mM NaCl; SDS/6% PAGE and anti-GFP western blot

stoichiometry N: 4
Substance: EGFP-EVH2(Mena) (domain or fragment)
